Experimental data: patent US20150329863, “APTAMERS INHIBITING THE ENZYMATIC ACTIVITY OF TYROSINASE” (L V M H RECHERCHE, published 2015)

T1: tyrosinase (endogenous, normal human melanocytes) (Homo sapiens) (UniProt P14679)
T1 sequence: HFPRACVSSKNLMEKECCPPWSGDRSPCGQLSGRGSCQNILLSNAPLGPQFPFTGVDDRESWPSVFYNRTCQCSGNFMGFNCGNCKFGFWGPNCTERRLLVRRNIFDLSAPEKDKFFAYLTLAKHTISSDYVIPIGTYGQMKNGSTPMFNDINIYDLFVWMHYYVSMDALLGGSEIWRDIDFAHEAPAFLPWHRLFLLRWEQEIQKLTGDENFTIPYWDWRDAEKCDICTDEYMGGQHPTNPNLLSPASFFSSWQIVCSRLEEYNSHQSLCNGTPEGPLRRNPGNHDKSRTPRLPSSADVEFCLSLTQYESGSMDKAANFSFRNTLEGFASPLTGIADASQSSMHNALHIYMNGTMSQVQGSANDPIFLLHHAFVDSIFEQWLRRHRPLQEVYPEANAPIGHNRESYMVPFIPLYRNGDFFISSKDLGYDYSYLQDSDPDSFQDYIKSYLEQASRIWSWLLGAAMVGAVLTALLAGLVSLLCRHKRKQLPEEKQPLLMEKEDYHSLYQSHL

T2: tyrosinase (TYR) (Homo sapiens, UniProt P14679 P14679:19-529)
T2 sequence: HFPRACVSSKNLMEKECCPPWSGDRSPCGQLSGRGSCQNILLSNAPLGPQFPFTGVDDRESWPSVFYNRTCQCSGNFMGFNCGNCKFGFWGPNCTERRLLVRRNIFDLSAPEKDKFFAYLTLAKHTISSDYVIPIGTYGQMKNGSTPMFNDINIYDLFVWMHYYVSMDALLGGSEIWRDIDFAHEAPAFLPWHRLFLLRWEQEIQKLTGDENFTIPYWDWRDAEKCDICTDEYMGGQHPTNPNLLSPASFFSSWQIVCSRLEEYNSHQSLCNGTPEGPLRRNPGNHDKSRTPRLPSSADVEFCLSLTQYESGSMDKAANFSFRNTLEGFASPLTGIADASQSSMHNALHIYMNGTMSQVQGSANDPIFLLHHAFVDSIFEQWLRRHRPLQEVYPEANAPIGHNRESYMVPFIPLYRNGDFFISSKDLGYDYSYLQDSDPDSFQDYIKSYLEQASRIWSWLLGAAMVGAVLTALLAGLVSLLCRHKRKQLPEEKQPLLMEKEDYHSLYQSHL


Assays:
[1] = target: T1, tyrosinase (endogenous, normal human melanocytes) (Homo sapiens); assay: cell_activity; conditions: 4-200 nM, no dose dependence; 72 h melanocyte treatment, L-DOPA oxidation
[2] = target: T2, tyrosinase (TYR); assay: SPR; 16 RU at 500 nM and 42 RU at 1 uM tyrosinase on about 1000 RU immobilized biotinylated aptamer; PBS-Mg buffer, 23 C; conditions: tags: N-terminal GST tag, Abnova; label: biotin (SPR); predicted long imperfect stem-loop with 5-nt internal loop and 5-nt apical loop
Protocol: All the experiments were carried out on a Biacore 3000 device with PBS—Mg buffer at 23° C. The biotinylated oligonucleotides—heated at 75° C. for 5 minutes, placed on ice for 5 minutes and then placed at room temperature for at least 5 minutes—were immobilized on streptavidin-coated sensor chips (XanTec bioanalytics). The oligonucleotides were injected at 100 nM for 4 minutes at 5 μl/min to reach 800 to 1000 RU.
Tyrosinase and the GST-His control were injected at 500 nM and 1 μM at a rate of 20 μl/min at 23° C. The same injections were carried out with PBS—Mg buffer and tyrosinase storage buffer to subtract the effects of the buffer from the specific sensorgram.
The binding of this candidate, T10.1, and of truncated versions derived from the full-length candidate (Table 1) was investigated by surface plasmon resonance (SPR). About 1000 resonance units (RU) of biotinylated candidate T10.1 were immobilized and tyrosinase was injected at 500 nM or 1 μM. Signals of 16 and 42 RU were detected for 500 nM and 1 μM, respectively, indicating interaction between candidate T10.1 and tyrosinase (FIG. 2).

Row | Molecule | activity [1] [% inhibition] | binding result [2]
1 | GCCTGTTGTGAGCCTCCTGTCGAANNNNNNNNNNNNNNNNNNNNNNNNNNNNNNTTGAGCGTTTATTCTTGTCTCCC [round 10 population] | > 75 | –
2 | T10.1 (ssDNA) DNA: GCCTGTTGTGAGCCTCCTGTCGAACGCAATGGGCGCAGATTGGAAGGCCTAGCATTGAGCGTTTATTCTTGTCTCCC | – | binds
